The results in this text go back to patent US20210292428A1 (US Dept. of Health and Human Services, published 2021).

In assay [1] the target is T1, recombinant human glypican-2 (GPC2) (human, UniProt Q8N158 24-554, limits assumed).
T1 construct: also called human GPC2; huGPC2
T1 sequence (looked up): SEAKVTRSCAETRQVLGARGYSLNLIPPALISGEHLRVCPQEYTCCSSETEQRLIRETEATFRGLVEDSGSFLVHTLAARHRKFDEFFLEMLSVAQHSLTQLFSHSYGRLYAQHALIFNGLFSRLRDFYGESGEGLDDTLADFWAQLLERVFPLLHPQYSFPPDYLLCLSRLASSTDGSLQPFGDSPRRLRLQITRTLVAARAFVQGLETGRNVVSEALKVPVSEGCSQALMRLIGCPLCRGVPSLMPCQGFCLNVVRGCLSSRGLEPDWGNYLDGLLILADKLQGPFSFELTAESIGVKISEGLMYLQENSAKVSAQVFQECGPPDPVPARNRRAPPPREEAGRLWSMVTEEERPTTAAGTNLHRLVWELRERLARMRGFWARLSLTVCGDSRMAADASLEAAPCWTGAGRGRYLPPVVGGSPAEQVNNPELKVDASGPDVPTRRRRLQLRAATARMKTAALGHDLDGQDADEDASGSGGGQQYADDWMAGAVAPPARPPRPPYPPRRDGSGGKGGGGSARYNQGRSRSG
Put plainly: Octet kinetic analysis (BLI), FIG. 1C.

Assay [2] has as its target T2, recombinant human glypican-4 (human, UniProt O75487 19-529, limits assumed).
T2 construct: also called huGPC4
T2 sequence (looked up): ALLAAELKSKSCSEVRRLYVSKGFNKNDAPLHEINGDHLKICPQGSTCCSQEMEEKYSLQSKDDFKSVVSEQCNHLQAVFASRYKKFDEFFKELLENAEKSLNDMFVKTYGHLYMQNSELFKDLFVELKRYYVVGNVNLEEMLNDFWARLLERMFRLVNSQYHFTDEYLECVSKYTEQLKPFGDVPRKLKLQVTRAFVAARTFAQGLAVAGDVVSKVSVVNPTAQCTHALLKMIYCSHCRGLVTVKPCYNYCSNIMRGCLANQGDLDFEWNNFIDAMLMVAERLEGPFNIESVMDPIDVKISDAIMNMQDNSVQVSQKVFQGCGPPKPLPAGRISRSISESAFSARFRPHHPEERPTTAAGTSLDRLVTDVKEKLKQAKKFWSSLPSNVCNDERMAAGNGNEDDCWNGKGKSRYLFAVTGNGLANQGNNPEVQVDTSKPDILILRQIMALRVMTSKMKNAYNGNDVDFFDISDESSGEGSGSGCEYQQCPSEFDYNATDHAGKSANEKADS
Put plainly: ELISA on recombinant human glypicans and mouse GPC2, absorbance OD450nm.

In assay [3] the target is T3, recombinant human glypican-5 (human, UniProt P78333 25-554, limits assumed).
T3 construct: also called huGPC5
T3 sequence (looked up): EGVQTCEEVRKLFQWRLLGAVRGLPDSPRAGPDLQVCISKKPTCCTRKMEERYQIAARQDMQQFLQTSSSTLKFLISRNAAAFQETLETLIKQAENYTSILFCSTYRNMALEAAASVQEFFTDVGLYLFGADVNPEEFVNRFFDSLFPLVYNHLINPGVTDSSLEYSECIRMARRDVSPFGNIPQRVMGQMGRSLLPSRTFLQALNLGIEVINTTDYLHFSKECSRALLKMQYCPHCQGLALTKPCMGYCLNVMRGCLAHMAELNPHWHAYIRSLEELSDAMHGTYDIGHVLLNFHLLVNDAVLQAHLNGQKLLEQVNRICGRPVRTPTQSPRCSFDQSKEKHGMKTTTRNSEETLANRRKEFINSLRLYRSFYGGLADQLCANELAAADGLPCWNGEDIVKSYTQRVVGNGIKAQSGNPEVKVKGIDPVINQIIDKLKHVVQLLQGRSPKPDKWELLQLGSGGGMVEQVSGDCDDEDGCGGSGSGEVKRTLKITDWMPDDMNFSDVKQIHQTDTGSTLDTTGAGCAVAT
The assay is described as above.

Assay [4] deals with T4, recombinant human glypican-1 (human, UniProt P35052 24-530).
T4 construct: also called huGPC1
T4 sequence (looked up): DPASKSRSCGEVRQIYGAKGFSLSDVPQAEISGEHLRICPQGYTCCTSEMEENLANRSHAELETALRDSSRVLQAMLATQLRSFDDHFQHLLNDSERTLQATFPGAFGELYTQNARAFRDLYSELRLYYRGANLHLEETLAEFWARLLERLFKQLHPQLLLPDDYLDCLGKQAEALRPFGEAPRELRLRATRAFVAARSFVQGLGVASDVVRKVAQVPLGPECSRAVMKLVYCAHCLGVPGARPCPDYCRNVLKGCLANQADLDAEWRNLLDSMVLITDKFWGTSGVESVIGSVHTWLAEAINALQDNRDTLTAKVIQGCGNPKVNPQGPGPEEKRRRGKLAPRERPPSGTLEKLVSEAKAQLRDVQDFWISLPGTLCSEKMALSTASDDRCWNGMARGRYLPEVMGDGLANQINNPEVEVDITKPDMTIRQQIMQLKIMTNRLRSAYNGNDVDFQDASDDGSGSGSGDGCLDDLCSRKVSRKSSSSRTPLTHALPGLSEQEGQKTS
Described as above.

Assay [5] deals with T5, recombinant human glypican-6 (human, UniProt Q9Y625 24-529).
T5 construct: also called human GPC6; huGPC6
T5 sequence (looked up): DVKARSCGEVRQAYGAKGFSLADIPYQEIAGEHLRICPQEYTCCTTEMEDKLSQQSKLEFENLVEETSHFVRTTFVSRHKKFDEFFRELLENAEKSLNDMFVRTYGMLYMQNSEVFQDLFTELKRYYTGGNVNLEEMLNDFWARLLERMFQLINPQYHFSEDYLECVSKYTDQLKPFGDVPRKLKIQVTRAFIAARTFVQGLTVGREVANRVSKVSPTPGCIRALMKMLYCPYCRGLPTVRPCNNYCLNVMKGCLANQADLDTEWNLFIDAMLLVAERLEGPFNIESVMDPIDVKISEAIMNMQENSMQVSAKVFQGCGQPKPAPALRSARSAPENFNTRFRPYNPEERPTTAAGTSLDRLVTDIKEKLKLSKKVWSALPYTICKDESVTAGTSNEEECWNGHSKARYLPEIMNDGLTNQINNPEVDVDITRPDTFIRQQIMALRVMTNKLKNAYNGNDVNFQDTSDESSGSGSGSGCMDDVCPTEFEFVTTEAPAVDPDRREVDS
The assay is described as above.

Another assay addresses T6, recombinant mouse GPC2 (mouse, UniProt Q8BKV1 22-556, limits assumed).
T6 construct: also called msGPC2
T6 sequence (looked up): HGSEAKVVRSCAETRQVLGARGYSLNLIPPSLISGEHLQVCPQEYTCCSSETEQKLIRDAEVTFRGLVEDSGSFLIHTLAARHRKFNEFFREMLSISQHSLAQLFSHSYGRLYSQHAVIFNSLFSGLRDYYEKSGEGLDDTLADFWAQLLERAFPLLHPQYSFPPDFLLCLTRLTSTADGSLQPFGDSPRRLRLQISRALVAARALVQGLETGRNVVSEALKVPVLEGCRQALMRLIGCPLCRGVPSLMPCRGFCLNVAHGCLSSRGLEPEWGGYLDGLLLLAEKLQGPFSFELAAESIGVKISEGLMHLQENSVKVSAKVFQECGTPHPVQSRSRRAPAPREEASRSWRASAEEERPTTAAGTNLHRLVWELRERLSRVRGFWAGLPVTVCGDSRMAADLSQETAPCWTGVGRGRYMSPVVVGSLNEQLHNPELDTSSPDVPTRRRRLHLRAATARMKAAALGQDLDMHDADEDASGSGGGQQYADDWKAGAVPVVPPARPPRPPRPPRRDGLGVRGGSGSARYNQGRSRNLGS
The assay is described as above.

Assay [6] addresses T7, recombinant human glypican-3 (human, UniProt P51654 25-559).
T7 construct: also called human GPC3; huGPC3
Put plainly: ELISA on recombinant glypican proteins, absorbance OD450nm.

Another assay has as its target T8, Human GPC2-His (human, UniProt Q8N158 24-554).
T8 sequence: T1 sequence (looked up)

Assay [7] has as its target T9, human GPC2 expressed on the cell surface (human, UniProt Q8N158 24-554).
T9 construct: whole, on cells; also called cell-surface GPC2; GPC2 on LAN1, IMR5, G10, F8, SKNBE2 and NBEB cells
T9 sequence (looked up): T1 sequence (looked up)
Put plainly: flow cytometry on GPC2-positive neuroblastoma cell lines LAN1 and IMR5, CT5 at 10 ng/ml, counts normalized to mode.

For assay [8], the target named is T3, recombinant human glypican-5. Put plainly: ELISA on recombinant glypican proteins, absorbance OD450nm.
The target of assay [9] is T1, recombinant human glypican-2 (GPC2). The description is as above.
Assay [10] concerns the target T5, recombinant human glypican-6. The assay is described as above.

T7 sequence (P51654 25-559 limits assumed): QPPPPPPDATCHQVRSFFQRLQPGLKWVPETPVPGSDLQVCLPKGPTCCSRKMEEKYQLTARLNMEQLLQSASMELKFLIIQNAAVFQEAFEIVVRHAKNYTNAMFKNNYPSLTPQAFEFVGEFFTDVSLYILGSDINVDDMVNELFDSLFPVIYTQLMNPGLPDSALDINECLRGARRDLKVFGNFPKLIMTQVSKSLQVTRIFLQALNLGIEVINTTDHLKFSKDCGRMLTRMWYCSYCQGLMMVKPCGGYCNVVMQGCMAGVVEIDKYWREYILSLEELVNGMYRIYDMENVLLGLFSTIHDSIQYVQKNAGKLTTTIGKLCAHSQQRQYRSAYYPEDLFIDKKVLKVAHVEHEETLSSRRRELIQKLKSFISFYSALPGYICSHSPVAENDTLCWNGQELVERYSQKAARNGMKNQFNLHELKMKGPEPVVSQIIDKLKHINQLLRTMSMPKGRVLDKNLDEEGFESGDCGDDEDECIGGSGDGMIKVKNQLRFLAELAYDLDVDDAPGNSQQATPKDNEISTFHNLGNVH

B1: CT3 antibody (antibody, IgG1, V domains shown)
VH: EVQLQQSGPELVKPGASVKMSCKASRFTFTDYNIHWVKQSPGKTLEWIGYINPNNGDIFYKQKFNGKATLTINKSSNTAYMELRSLTSEDSAVYYCVRSSNIRYTFDRFFDVWGTGTTVTVSS
VL: ENVLTQSPAIMSASLGEKVTMSCRASSSVNYIYWYQQKSDASPKLWIYYTSNLAPGVPARFSGSGSGNSYSLTISSMEGEDAATYYCQQFSSSPSTFGTGTKLELK
notes: also called anti-GPC2 antibody CT3
Consider B1, for which the Kd in assay [1] was found to be 0.5 nM. Further, the binding result (in assay [2]; in [3]; in [4]; in assay [5]; with recombinant mouse GPC2; in assay [6]) was “no binding” in each case.

B2: CT3-PE38 immunotoxin (other)
chain: EVQLQQSGPELVKPGASVKMSCKASRFTFTDYNIHWVKQSPGKTLEWIGYINPNNGDIFYKQKFNGKATLTINKSSNTAYMELRSLTSEDSAVYYCVRSSNIRYTFDRFFDVWGTGTTVTVSSGGGGSGGGGSGGGGSENVLTQSPAIMSASLGEKVTMSCRASSSVNYIYWYQQKSDASPKLWIYYTSNLAPGVPARFSGSGSGNSYSLTISSMEGEDAATYYCQQFSSSPSTFGTGTKLELKSAAKASGGPEGGSLAALTAHQACHLPLETFTRHRQPRGWEQLEQCGYPVQRLVALYLAARLSWNQVDQVIRNALASPGSGGDLGEAIREQPEQARLALTLAAAESERFVRQGTGNDEAGAANGPADSGDALLERNYPTGAEFLGDGGDVSFSTRGTQNWTVERLLQAHRQLEERGYVFVGYHGTFLEAAQSIVFGGVRARSQDLDAIWRGFYIAGDPALAYGYAQDQEPDARGRIRNGALLRVYVPRSSLPGFYRTSLTLAAPEAAGEVERLIGHPLPLRLDAITGPEEEGGRLETILGWPLAERTVVIPSAIPTDPRNVGGDLDPSSIPDKEQAISALPDYASQPGKPPREDLK
In the assay with Human GPC2-His, B2 showed a Kd of 0.22 nM.

B3: CT5 antibody (antibody, IgG1, V domains shown)
VH: EVKLVESGGGLVQSGRSLRLSCATSGFTFSDFYMEWVRQAPGKGLEWIVASRDKANDYTTAYSASVKGRFIVSRDTSQSILYLQMNALRAEDTAIYYCVRDFYDYDEAYWGQGTLVTVS
VL: DIQMTQSPSSLSASLGGTVTITCKASEDINNYIAWYQHKPGKGPRLLIQYTSTLQPGIPSRFSGSGSGRDYSLSISNLEPEDIATYYCLQYDILWTFGGGTKLEIK
As to B3, the binding result in assay [7] was “binds”; in [8] it was “no binding”; in [9] it was “binds”; in [10], “no binding”; in assay [6], “no binding”.

B4: CT3-T20 immunotoxin (other)
chain: EVQLQQSGPELVKPGASVKMSCKASRFTFTDYNIHWVKQSPGKTLEWIGYINPNNGDIFYKQKFNGKATLTINKSSNTAYMELRSLTSEDSAVYYCVRSSNIRYTFDRFFDVWGTGTTVTVSSGGGGSGGGGSGGGGSENVLTQSPAIMSASLGEKVTMSCRASSSVNYIYWYQQKSDASPKLWIYYTSNLAPGVPARFSGSGSGNSYSLTISSMEGEDAATYYCQQFSSSPSTFGTGTKLELKKLKASGGRHRQPRGWEQLGGGGGSPTGAEFLGDGGDVSFSTRGTQNWTVERLLQAHAQLEERGYVFVGYHGTALEAAQSIVFGGVRARSQDLDAIWRGFYIAGDPAHAYGYAQDQEPDARGRIANGALLRVYVPASSLPGFYRTSLTLAAPEAAGEVERLIGHPLPLRLDAITGPEEEGGREETILGWPLAERTVVIPSAIPTDPRNVGGDLDPSSIPDKEQAISALPDYASQPGKPPREDLK
In the assay with Human GPC2-His, B4 registered a Kd of 0.16 nM.
